# The NTF2 design screens of Basanta et al. (2020)
# Test: protease stability score; higher = more stable; yeast display proteolysis, trypsin and chymotrypsin;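 note: relative to predicted unfolded state with 0 unfolded-like and 1 meaning tenfold more protease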
row,Sequence,protease stability score
1,SEDEEWLHMAFELFAEAMRTGDEETLREYLDPRVRLVVGDKNLHGMEIVMRHFLEWRVRDVKIERIRVINGQLHIDGRLRVEFNGQEKNVDLTLILDKYNGRWRNRTIELR,1.69
2,SEDEEWSRLIVEEFIKVLDTGDERLTSEMLDPNARIVIGDKHIHGRESLVELIHRIKNIKFDFKHVNTQGDKVEVDGTIVFNGRTTTVLIRMKKVNGRWFVTEIHIE,1.9
3,SEDEEWVRRKVERWIRAFKTGNFEELRRNADPDTRIHINGVNFHGREDFEKFVTELMRRVKNARIDVHRLELQGEFIHSDETEDVNGVEHHVRFTYRKIDGRWSLHSIEFH,1.59
4,SEDEEWVSLLATLILRVLLTGDEDIWKKLADPNTIHDIGEKHFHGREEIARFWMELRIKSFHVRDMDVVGDFFHIRTHMDVSIDGKDIRTDVEIHILIINGRVKRQRFEFH,0.404
5,SEDEEYAKNVDKIMRESLMTGDEDSVERMFDPHAKVIVGDKEYHGREEMVRHIKWFLEHARIRDLRMRDVRIYGDKIEIDVEVDIDVNGKRIQRKEVIYVVKVNGKWIVEYIEIK,1.54
6,SEDEEYIRELMKLIAQITQTGDEELFRRLVDPHTRLVQGDKQYHGWHAFRVFLEEMRIKSVRVEVRRIEIQGEYVHVDTHWQLHVHYNGRDIDLHIDVRNIVHKVNGRWIIRHIHVE,0.986
7,SEDEEYLKRALELWDELVKTGDEHRSRRLFDPNARLEIGDKEYHGREEVTHMLRWLIKEIRVHSVTLKDFRSQGDKLIADTRQNREYNGKSDNVSLIMIIIKVDGRWLIESIKIE,1.41
8,SEDEEYMHNVARLLMESLLTGDEKTLKELFDPNTRVDINGKDIHGREDILTDWKRREHEWRVEDIKIEHEEVQGNKAVLHGKVTGDINGVKTHIHRDVHWEVINGKLKYVKFEHR,1.12
9,SEDEEYSHFASELFLNIFETGDWKTLLHYMDPNTRLVVNGRHHHGWKFMVEFLLHARIHTTRLKDIRTVNGKVDVDGRVDGHINGQKEERVFIINITKVNGVWILESVIIE,0.986
10,SEDEEYSRIIVKLWLEKMRTGDEDSLTKLMDPNYRLDINGKIFHGREEALLALREMVNRIDHFRDIKIHHVDIQGDKIRIDGRLEGEINGVHEIHKSSLVLVKYDGVWVIEEQKVL,1.91
11,SEDEEYVEHMIRLVIRSLWTGDEHLLHRLIDPHARAEVNGQEFHGREEVLDILMRIRDELGVDHIELKDFELQGDKLILYSQNNVGDKHFHIIYELTKINGRWRIHRVFIELR,1.7
12,SEDEEYVKELADLFKELWETGDEETFMKLVDPNVRSDVNGKRVHGREEIRRVWHEVIRTLGIKYSHLRDMRIIGNKVVLDIELRVGDKRIELKVILIIVNGRMHYVELRLNEI,1.89
13,SEDEFDARLVYKLVLDLLLTGDPDTWRKLFDPNVKINIDGVDYHGMKEFERIVKEIRVIIHDSELHDVETQGDKIIYHGIIDGTYHVNGRTIRERRTFTIIAHKVDGRWILHSISYE,1.22
14,SEDEHAARWMTEDLERHTETGDEHRLTELIDPHAKLIFNGREYHGWEDYVKLFRELRVRRLEIKRVEVQGDKLFIDSTLRGNVNGREIDFEIHFVTHKINGRWKVHSVEII,1.69
15,SEDEHAVRELIELESHAWRTGDEDTLRRLIDPHTRVEQGDFIFHGREEWEKFVKRLLRHMRIEDIFIHHVRVQGDKVDTDSRLLVLFEGRREHVEVDLIILKIDGRWVISQIIIK,1.39
16,SEDEHDARHAIELFLRSMETGDEQSIWELADPHTLSDIDGVKLHGRDLWITFLRRYSETLGVDRVIVQVERVEVQGDKVRSHIRLHINGVTLNSRVHAEKINGVWLNRKVEFG,1.3
17,SEDEHDARLAIRLLLEALRTGDERIMEELLDPNVRFDINGKEFHGRKYVSEWLHRVDHIESRFELRDVHLFDGRIEVRGILRLHIDVNGKIDDQEKDIVLFVNKVDGRWIVHSWEIH,1.33
18,SEDEHDSELALRIFIQEVYTGDWKRLADNMDPNVRLEINGVENHGRELAIKNLRRRLEELGVKVSDLKIDDIKVQGDKVNLDGQLNLHVNGRTIIINTEVIFRKVDGRWIIESIRYE,1.7
19,SEDEHEALKVSEQFIRDLLTGDEDTFNRLADPNTRSEVGNKRQHGMDEVTHLWKELRIEDFTLRDQKIRIIGDKAEIDMDGEMVIIVNGKRVVQRVTLHLRVRKINGRWILHSIKLHIE,1.3
20,SEDEHELREFVNRYLHAMKTGDEDMLRDLLDPHVRFLIDGKNYHGREWVVAIFREFGIDRVEFELKDSEVQGDKVHIDGRVHINGQERSTEFRLEKYNGKWFLREEHYH,1.5
21,SEDEHEMRLALEKEIKDWHTGDEDSLRELADPDVRLTVNGKRKHGWEILDVLLKHLRVRSVEIKHLRLQGDKAEMDLRMDGEVGDKRINLITHVIMYKVDGKWIIEEIVVK,1.43
22,SEDEHFFRLVTRWIVRALLTGDEDSLQELLDPHVKFEINGRDFHGRESVYRAVLEIRRNDLRMKREHYHVQGDFVRSELTIEEELVIGDKIVTIESRLLLIILKINGRWYLEKMEVHFK,1.41
23,SEDEHFLERFLKLFLHAYETGDEDFIKHLLDPHTRIDIHIGDKTHHLHGRDEMSKLHRKLGAKVSRHRDSNMDIQGDKATSHIHGVEYVNGREIRIDIVLIMRKVDGRWVIESMIFIFH,1.25
24,SEDEHHIERMLKLFVKAVKTGDEDTLVKLLDPHARLHIGDKDHHGWEDIYKHEHELGLDRVEMDIHRIHLQGDKINVDGTLFIDGKHIEVVIYAKKVNGRWFVETREIR,1.22
25,SEDEHHLERALKEWIKVFETGDEDKEKKMADPHMRTDINGVELHGRELMITLIVELWEKLGVDHLEFNLSRFEIVNGQVFLHMEENLFVNGQRLRFKHEIIFNKVDGRWIVEEIRIH,1.26

row,Sequence,protease stability score
1,SEDEHHSREFLRVTEEILQTGDEEKREKNADPHMRFVLVYNGRETIIHGRETVVHFIHEELQRLGWDRFRVETERMSVYNGVVHIDIRIFVGDKTIHWHEHAKKVNGRWVYKSVEIRRE,1.03
2,SEDEHIADMVIKELQHILNTGDEDRLRDLMDPNTRFDINGRHIHGREDVAHWLAREVLEMRVEFHLEHWDIVDGRIHIHSNVLIIVGNKIIRIKTEILIIKIDGRWYVEELKFR,1.36
3,SEDEHKLRTMLELWLEAHRTGDEDLLRKLMDPDVRIHVGDKDFHGWDHEIELFRKELKRLGIDKIDIEVKRIDLQGDKVILEVIVHINGKEIHMIIYANKFNGRWHVKQIEIR,1.35
4,SEDEHLADHFLRLQRKHIDTGDEDSFDRMIDPRAKFDIDGQEFHGREWSEWVKKRFDHVHIERIITRKFHVVDGRAEFHVDYDGRLNYNGVEVRVTLKQITIIEKIDGRWYVRSESIK,0.656
5,SEDEHLAERMVHLWNKILLTGNEEIMEKLFDPNTRVIVGDKEYVGREVFLHLVKEIRKRADHIEIRIQHLEVQGDKVHLHGILIFRQGDKSDEQRVHLHSEKVNGRWFLREFRFE,2.3
6,SEDEHLTRNLAKDTIRALETGDEDRLNELFDPDVRLEIGDFMSHGRKSFTDTLRRFKNLTLHIHDMRVIGDKVHIDGEVDWNGQRRKTEIIIVIVDGKLKQIHYNIH,0.874
7,SEDEHMFELARHILEETDRTGDWRELEKNVDPNARLRVDGQRQHGRDSVRLLIERADHIHHRRLETFTVVNGVIHFEMHVHVIINGVPYEVEVHMHALKVDGKWIIKKVEMD,0.479
8,SEDEHNAEIAIKIWLDTIRTGDWHKIENMADPNTRIDIGDKHFHGREEIVRLYIELVEKFPGMTFHVREVDVVGDKVDIHSHVVVGDKTFNLTIIITKVNGRWLLKKVRMESH,2.67
9,SEDEHQSKLALELLQESSYTGDWKTSQDLMDPHARFVIGDKYVHGMEEVSRMMEEIRIEEIHIRKIHTVGNKIEIKGEIRIRIGDKHTSTEVEWVASKVNGRWLLEELVVH,0.511
10,SEDEHRAEQLLRLWRETYTTGDERVMKELFDPNVRFDFNGREFIGREEAIRAFHEEVRHLGVDHVEIKEVEYRVINGQVHVHIESHFEVDGRRHRVHIESIVRKVNGKWRVEEVRIEIR,0.969
11,SEDEHRAREVVHIFNEAIDTGDFQSLMDMMDPNVRLIFENHHTIGREEALKVINRFDHVRNHHVRWRHVHHVNGRIIDHTEVDIVIHINGQIIRETTERDITIEKVNGRWLIHQIEIR,1.14
12,SEDEHRSHLLLKEFEHLMRTGNEEEIERNLDPHTRLEFNGREFHGREDAREVWRRFGFKHLDSLRFHHLEIQGDKIIIDSRTEMLFNGVHTITRVEFHALKIDGRWLSTELRIG,0.919
13,SEDEHRSRHDAELFLKFVKTGDEHHLQRFADPNVQFHQGEWEDHGRESLREQFRKFMEDLGADHSELESIRVHIQGDKMTVHIHVTFRVGDKTIKSTWRFYITKINGRWTMERMDVELH,0.629
14,SEDEHSFKMAIDLWEEVSRTGDEKDLRELIDPHVRVEYGDKHHVGWDRFIKVFHEIRFHHIKVRDHRIIGDKLHMNIEVHGEYNGQRVTIETHVVMRKIDGRWFTETMQID,1.22
15,SEDEHSWRLAREEFRKTNETGNEEDLSRLFDPHVRIDINGREIHGRDEASELFHKLGIDHIRWRVKRVKIFDGRMENRGELILIFNGREHRYDITVISSKIDGQWSVESMHYK,0.534
16,SEDEHYVRHAIKLWMDSHLTGDEHTLTQLLDPNVRTDFNGREFHGREEASKWTKHLLERMGIKVSDVHLRRLDVQGDKAISHTELIIHFNGVDLSKEVHIDIMKVDGQWMIRDLTII,0.613
17,SEDEIARHILHKMMTGDEDSFEELLDPNARLIVGNKHSHGRERVIEDWKRDLELAGFKHSEVKRIHFQGEKSHVHGHINVNGKEYRVLFILVIVNGRLKEVELHVTDEREEKYLHRTWE,0.007
18,SEDEIAVKKFMQRWIEAVHTGNEDVLTELADPNYRIIFEGRNLHGMDQILHDVRRVDVLEERMHVTSVDSQGDKIHIHGTLQVHFHVGDKQIDIHTQVTWHMLKIDGVWILKKVEIH,1.39
19,SEDEKASKEAFELWRRVDETGDEHSLLRLLDPHVRLHIGDKHLHGREEVKRLLEELGVSRVHFDLRTIRVINGKVFVHGDFEVGDKRTHSEIVALKVDGRWINESIHIR,0.806
20,SEDEKAVEDLFKLWVRDLVTGDEDSINKLLDPNARVEIGDKEFHGMEDVVRFLLHIRFKHVEMHDMRVQGNKATLHVDIRGVVDGRDRELDTILIIEKVNGKWYLHHQKIN,1.48
21,SEDEKDAEKMSERFLHMFITGNEELFRDLADPHTRLKVNGVHNHGREHVEILNKEFLTRLGVNYYEEHDVRYRVIDGVVFIDIVGHMNIDGQETEVTLHWRVLKVNGRWRITEVDIRRH,1.64
22,SEDEKDAHEAVKRMVHFSETGDWREIEELADPHYRIDWNGRTHIGREEFTEITKRLGINVIRHRHITIINGRIHVHGEVHFNGQSTEVEFIITKINGKWRLHEMIIR,0.747
23,SEDEKDARIAVKLLWEIFQTGDEDLFTKFIDPNTRSEINGREIHGREDVYRLMEELGIKVIRVHDVKTQGDKVHLTMEVTVNGRRHRVHFIFEKIDGRWIARHEKVE,1.45
24,SEDEKDVKDAFDIWYESHITGNEEYARKMADPDTLSIVNGVRIHGMETWMHFLLKHQKELGIDVYTTDIHHVEVFDGRVKVDLRMREIFNGRHLEFETEVISEKIDGRWHVRSIRIT,1.36
25,SEDEKEAKETQSIYSHAVQTGDEHHLKELADPNVRIEINGVEYVGWEQLKDMLERFKNVRIKVSVRRVHQIGDKIHLNTELEEDVDGVRRVIDVRVIIWKINGRWRFKTFESQ,1.41
